Two molecules from patent US20090304746A1 can be followed below.

The target of one test is HLA-A*2401 (human). Nature of the test: competition with 125I-labelled standard peptide for purified HLA, gel filtration. A general note: SEC sorts molecules by how far they enter the pores of the column.

B1: … (peptide)
peptide: NIVDVQYLY
modifications: not checked
Consider B1, for which the binding affinity ratio (IC50 of standard peptide / IC50 of test peptide) with HLA-A*2401 (human) stood at 0.0001.

B2: … (peptide)
peptide: LSNSLLRHH
modifications: not checked
As for B2, the binding affinity ratio (IC50 of standard peptide / IC50 of test peptide) with HLA-A*1101 (human) came out at 0.0001.
